Data on one molecule can be found in publication PMC2171568 (The Journal of Cell Biology, 2005).

Non-standard residues stand in square brackets, D forms with d. No end group written: not given here. pS = N[C@@H](COP(=O)(O)O)C(=O)O

The target in test [1] is T1, 14-3-3 Saccharomyces cerevisiae isoform BMH1, His-tagged (Saccharomyces cerevisiae, UniProt P29311 1-267).
T1 sequence (looked up): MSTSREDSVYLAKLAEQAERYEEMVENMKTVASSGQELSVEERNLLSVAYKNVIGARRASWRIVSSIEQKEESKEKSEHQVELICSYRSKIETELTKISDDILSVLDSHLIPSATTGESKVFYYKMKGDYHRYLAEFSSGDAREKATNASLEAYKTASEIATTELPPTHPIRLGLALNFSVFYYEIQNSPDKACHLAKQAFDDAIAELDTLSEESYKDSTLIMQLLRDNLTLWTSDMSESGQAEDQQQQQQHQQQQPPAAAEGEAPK
Kind of test: pull-down.

Test [2] concerns the target T2, 14-3-3 Saccharomyces cerevisiae isoform BMH2, His-tagged (Saccharomyces cerevisiae, UniProt P34730 1-273).
T2 sequence (looked up): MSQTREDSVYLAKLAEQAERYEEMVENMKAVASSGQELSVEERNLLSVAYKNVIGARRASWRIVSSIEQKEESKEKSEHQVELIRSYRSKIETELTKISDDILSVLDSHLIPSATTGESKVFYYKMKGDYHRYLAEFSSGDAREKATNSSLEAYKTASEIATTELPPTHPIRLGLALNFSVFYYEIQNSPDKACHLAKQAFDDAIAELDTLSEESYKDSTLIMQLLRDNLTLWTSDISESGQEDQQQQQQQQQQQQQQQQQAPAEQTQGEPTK
Kind of test: pull-down.

Consider ARAA[pS]APA [peptide ARAApSAPA], for which the binding result in test [1] and in test [2] was “binds” each time.
